Literature values, collected in publication PMC10474648, “Design of chimeric GLP-1A using oligomeric bile acids to utilize transporter-mediated endocytosis for oral delivery” (Biomaterials Research, 2023).

How the values were obtained:
[1] = cited from earlier work
Description: Diabetes is a representative chronic disease that requires lifetime management. Because of the need for frequent and combination dosing, most hypoglycemic therapeutics are small molecule-based oral drugs.

[2] = biological target: GLP-1R; details: read-out: Kd, GLP-1R binding; cited from earlier work
Description: Cellular penetration may occur by two pathways: the paracellular and transcellular pathways. […] Additionally, ...

In the case of dulaglutide, the Half-life [1] is listed as 120 h.
For semaglutide, the Kd [2] is given as 0.38 nM and the Half-life [1] is given as 170 h.
